In US20150239980A1 (NEOTOPE BOSCIENCES, published 2015):

Assays:
[1] = target: T1, recombinant hMCAM-His (human, UniProt P43121 24-559); test: competitive ELISA on hMCAM-His, competitor biotinylated rodent or chimeric 2120; vs rodent 2120
T1 construct: not shown: His tag
T1 chain: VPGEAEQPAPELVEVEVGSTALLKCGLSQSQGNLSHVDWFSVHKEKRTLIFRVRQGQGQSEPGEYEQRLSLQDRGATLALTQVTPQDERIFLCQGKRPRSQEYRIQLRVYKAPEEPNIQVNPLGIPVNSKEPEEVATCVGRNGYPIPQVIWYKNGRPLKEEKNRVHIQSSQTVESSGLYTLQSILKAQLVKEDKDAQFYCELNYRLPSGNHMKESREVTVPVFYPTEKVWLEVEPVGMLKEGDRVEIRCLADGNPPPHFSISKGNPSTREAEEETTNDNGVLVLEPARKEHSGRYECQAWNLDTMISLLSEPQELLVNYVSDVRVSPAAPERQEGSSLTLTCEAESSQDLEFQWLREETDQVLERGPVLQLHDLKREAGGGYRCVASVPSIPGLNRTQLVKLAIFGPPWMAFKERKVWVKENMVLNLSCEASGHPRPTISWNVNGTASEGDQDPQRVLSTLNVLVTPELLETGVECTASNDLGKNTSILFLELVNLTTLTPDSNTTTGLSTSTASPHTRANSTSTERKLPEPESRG
Procedure: (§1) ELISA plates were coated with recombinant hMCAM-His, and blocked with casein buffer to prevent non-specific binding. Biotinylated rodent or chimeric antibody was added at a subsaturating concentration, in the presence or absence of 3× increasing concentrations of unlabeled competitor (humanized antibody, rodent, or chimeric). After washing to remove unbound antibody, streptavidin HRP was added to allow detection of the biotinylated antibody. The ELISA was developed with TMB substrate and the OD450 was measured. The IC50 of the unlabeled competitor was determined using the GraphPad Prism5 software.

[2] = target: T1, recombinant hMCAM-His; test: ForteBio Octet Red, hMCAM-His analyte; Forte column 1; vs rodent 2120
Procedure: (§2) The affinities were measured using the ForteBio Octet Red. Anti-human Fc sensors were used to capture the humanized antibodies, and several concentrations of hMCAMHis analyte were used to determine the affinity using a 1:1 fitting model.

[3] = target: T1, recombinant hMCAM-His; test: competitive ELISA on hMCAM-His, competitor biotinylated rodent or chimeric 2120; Expt. #1; vs rodent 2120
Procedure: as §1

[4] = target: T2, human MCAM (melanoma cell adhesion molecule) expressed on transfected CHO cells (human, UniProt P43121 24-646); test: laminin/FACS on hMCAM CHO cells, competitor laminin 411; Expt#1; vs rodent 2120
T2 construct: also called hMCAM; CD146
T2 chain: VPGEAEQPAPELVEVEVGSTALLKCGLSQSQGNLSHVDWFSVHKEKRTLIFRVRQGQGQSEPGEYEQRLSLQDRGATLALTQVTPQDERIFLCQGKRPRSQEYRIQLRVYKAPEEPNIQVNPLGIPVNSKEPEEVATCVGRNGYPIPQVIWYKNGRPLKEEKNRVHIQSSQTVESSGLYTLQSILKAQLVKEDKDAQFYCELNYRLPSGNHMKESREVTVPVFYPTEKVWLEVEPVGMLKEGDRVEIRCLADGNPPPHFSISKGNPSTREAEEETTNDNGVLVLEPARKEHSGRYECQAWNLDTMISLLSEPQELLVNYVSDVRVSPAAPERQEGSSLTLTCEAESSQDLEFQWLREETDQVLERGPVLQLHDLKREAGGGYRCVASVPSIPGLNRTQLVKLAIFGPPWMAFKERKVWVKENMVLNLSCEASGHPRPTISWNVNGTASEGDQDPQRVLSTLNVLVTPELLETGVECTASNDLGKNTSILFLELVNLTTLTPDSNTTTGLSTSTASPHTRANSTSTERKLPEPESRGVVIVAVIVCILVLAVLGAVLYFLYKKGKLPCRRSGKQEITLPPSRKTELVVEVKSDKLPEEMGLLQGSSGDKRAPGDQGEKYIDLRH
Procedure: (§3) Following incubation for 30-45 minutes, the cells were washed and anti-laminin conjugated to AF650 (NovusBio) was added to detect the bound laminin. The cells were run on a flow cytometer to measure the laminin binding signal.

[5] = target: T1, recombinant hMCAM-His; test: ForteBio Octet Red, hMCAM-His analyte; Forte column 2; vs rodent 2120
Procedure: as §2

[6] = target: T1, recombinant hMCAM-His; test: ForteBio Octet Red, hMCAM-His analyte; Expt. #2; vs rodent 2120
Procedure: as §2

[7] = target: T1, recombinant hMCAM-His; test: ForteBio Octet Red, hMCAM-His analyte; Expt. #1; vs rodent 2120
Procedure: as §2

[8] = target: T1, recombinant hMCAM-His; test: summary of ForteBio, hMCAM-His; vs rodent 2120
Procedure: as §2

[9] = target: T2, human MCAM (melanoma cell adhesion …); test: laminin/FACS on hMCAM CHO cells, competitor laminin 411; Expt#2; vs rodent 2120
Procedure: as §3

[10] = target: T1, recombinant hMCAM-His; test: competitive ELISA on hMCAM-His, competitor biotinylated rodent or chimeric 2120; Expt. #2; vs rodent 2120
Procedure: as §1

[11] = target: T3, Ig2 domain (mouse, UniProt Q8R2Y2); test: ForteBio Octet Red, anti-human IgG Fc (AHC) biosensors loaded with mouse MCAM-hFc proteins (5 ug/ml), dipped into antibody (5 ug/ml) or SP2 media
T3 construct: isolated domain 2; also called Murine MCAM domain 2 (Ig2) with human IgG Fc tag
T3 sequence (Fc fusion chain, looked up): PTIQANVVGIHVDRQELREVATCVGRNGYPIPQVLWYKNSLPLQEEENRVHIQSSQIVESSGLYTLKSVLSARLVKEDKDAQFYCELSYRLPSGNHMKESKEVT
Description: (§4) The following protocol was used: ForteBio Domain Mapping Protocol. ForteBio anti-human IgG Fc biosensors were used to immobilize various mouse MCAMhFc domains including full length mouse MCAMhFc protein on to biosensor surface. These sensors were dipped into either clone 15 or 17 MCAM specific antibody for detection of binding to these domains or full length protein. After loading these samples into a black 96 well plate, the Octet Red was programmed as follows: 60 seconds for baseline #1; 180 seconds for loading various domains; 60 seconds for baseline #2; 180 seconds for association of antibody to domain; and 240 seconds for dissociation of antibody from domain.
(§5) 1. Mouse MCAMhFc final concentration @ 5 ug/ml [0466] 2. Antibody clone 15 or 17 @ 5 ug/ml [0467] 3. ForteBio anti-human IgG Fc Capture (AHC) biosensors for kinetics experiments, cat#18-5060 [0468] 4. […] 5. ForteBio Octet Red machine [0470] 6. Fresh tissue culture medium, DMEM with 20% FCS, was used as buffer for dilution
(§6) For FIGS. 10A-B, clones 15 and 17 were tested against the following protein samples (all have human IgG Fc tag): Murine MCAM; Human Fc full length protein; Murine MCAM domain 1 (Ig1); Murine MCAM domain 2 (Ig2); and Murine MCAM domain 1 and 2 (Ig1-2A).

[12] = target: T4, murine MCAM-Fc fusion protein (mouse, UniProt Q8R2Y2 24-563); test: as above
T4 construct: extracellular domain; produced in CHO cells; also called mouse MCAM-Fc; mouse MCAMhFc; not shown: fused to human IgG
T4 sequence (looked up): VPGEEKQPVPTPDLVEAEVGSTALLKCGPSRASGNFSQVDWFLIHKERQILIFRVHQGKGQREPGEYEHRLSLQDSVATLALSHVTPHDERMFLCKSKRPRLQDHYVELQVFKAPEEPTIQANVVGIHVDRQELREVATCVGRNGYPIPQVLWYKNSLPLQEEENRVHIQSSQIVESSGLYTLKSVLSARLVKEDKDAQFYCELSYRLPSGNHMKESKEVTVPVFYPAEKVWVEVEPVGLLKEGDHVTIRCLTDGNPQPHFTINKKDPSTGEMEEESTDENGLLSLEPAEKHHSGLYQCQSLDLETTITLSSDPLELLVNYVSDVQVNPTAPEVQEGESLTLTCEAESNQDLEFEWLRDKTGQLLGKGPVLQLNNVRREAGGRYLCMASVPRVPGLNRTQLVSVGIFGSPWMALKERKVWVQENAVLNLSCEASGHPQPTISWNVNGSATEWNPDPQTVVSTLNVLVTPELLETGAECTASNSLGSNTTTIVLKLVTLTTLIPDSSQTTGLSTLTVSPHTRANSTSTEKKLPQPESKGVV
Description: as §4, §5, §6

[13] = target: T5, mouse MCAM expressed on transfected CHO cells (mouse, UniProt Q8R2Y2 24-648); test: flow cytometry, mouse MCAM transfected cells mixed with CFSE-labelled untransfected cells
T5 construct: whole, on cells; also called murine MCAM
T5 sequence (looked up): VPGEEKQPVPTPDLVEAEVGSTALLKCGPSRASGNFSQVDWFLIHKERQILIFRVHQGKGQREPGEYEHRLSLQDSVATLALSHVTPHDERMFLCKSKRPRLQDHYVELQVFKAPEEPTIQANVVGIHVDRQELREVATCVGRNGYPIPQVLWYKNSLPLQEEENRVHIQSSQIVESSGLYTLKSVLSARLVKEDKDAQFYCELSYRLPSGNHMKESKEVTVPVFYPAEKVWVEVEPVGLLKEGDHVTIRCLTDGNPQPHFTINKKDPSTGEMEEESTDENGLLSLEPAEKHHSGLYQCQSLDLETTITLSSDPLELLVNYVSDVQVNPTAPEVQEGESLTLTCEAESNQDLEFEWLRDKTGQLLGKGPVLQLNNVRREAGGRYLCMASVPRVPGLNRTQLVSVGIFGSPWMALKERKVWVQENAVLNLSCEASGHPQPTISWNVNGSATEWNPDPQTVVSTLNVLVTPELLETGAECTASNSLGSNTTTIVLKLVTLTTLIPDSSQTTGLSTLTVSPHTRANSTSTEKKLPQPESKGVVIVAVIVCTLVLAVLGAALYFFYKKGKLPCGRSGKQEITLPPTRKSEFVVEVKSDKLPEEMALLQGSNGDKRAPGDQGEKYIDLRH
Procedure: For the generation of antibodies capable of binding to murine MCAM, MCAM-Fc was generated by fusing the extracellular domain of murine MCAM to human IgG and produced in CHO cells using standard techniques. Lou/M rats were immunized with 100 μg of MCAM-Fc protein in CFA (1:1 volume). Rats were boosted two times at two week intervals with MCAM-Fc protein in incomplete Freund's adjuvant (IFA) (1:1 volume). Hybridomas were generated from immunized rats using standard protocols and clones were selected by Clonepix. CHO cells were transfected with the full length murine MCAM gene and selected for stable expression using neomycin and standard techniques. Parental CHO cells (MCAM negative) were fluorescently labeled with carboxyfluorescein succinimidyl ester (CFSE) using standard techniques and mixed at a 1:1 ratio with unlabeled MCAM transfected CHO cells. Hybridoma supernatants were incubated with this mixture of cells for 30 minutes and binding of potential MCAM specific antibodies was detected with a fluorescently labeled anti-rat secondary antibody (Jackson Immuno) by flow cytometry.

B1: h2120_VH1 + h2120_VL3 (antibody, human IgG1, V domains shown)
VH: QVTLKESGPVLVKPTETLTLTCTVSGFSLTSNGVSWVRQPPGKALEWIAAISSGGTTYYNSAFKSRLTISRDTSKSQVVLTMTNMDPVDTATYYCARRYGYGWYFDFWGQGTLVTVSS
VL: DIQMTQSPSSLSASVGDRVTINCKASQNIYNSLAWYQQKPGKAPKVLIFNANSLQTGIPSRFSGSGSGTDFTLTISSLQPEDFATYYCQQFYSGYTFGQGTKLEIK
- fold over rodent (competitive ELISA) [1]: 1.8 fold
- fold over rodent (Forte affinity) [2]: 5.9 fold
- fold over rodent (competitive ELISA) [3]: 2.23 fold
- fold over rodent (blocking, laminin/FACS) [4]: 1.7 fold
- fold over rodent (Forte affinity) [5]: 5.8 fold
- fold over rodent (Forte affinity) [6]: 6.21 fold
- fold over rodent (Forte affinity) [7]: 5.64 fold
- fold reduction in affinity as measured by ForteBio [8]: > 5 fold
- fold over rodent (blocking, laminin/FACS) [9]: 2.8 fold
- fold over rodent (competitive ELISA) [10]: 2.42 fold

B2: h2120_VH2 + h2120_VL3 (antibody, human IgG1, V domains shown)
VH: QVTLKESGPVLVKPTETLTLTCTVSGFSLTSNGVSWVRQPPGKALEWIAAISSGGTTYYNSAFKSRLSISRDTSKSQVVLTMTNMDPVDTATYYCARRYGYGWYFDFWGQGTLVTVSS
VL: DIQMTQSPSSLSASVGDRVTINCKASQNIYNSLAWYQQKPGKAPKVLIFNANSLQTGIPSRFSGSGSGTDFTLTISSLQPEDFATYYCQQFYSGYTFGQGTKLEIK
- fold over rodent (competitive ELISA) [3]: 1.93 fold
- fold over rodent (Forte affinity) [6]: 6.43 fold
- fold over rodent (Forte affinity) [7]: 6.57 fold
- fold reduction in affinity as measured by ForteBio [8]: > 5 fold
- fold over rodent (competitive ELISA) [10]: 2.62 fold

B3: anti-MCAM monoclonal antibody clone 17 (antibody, V domains shown)
VH: EVQLVESGGGLVQPGRSLKLSCAASGFTFSNYYMAWVRQAPTKGLEWVASISFEGNRNHYGDSVKGRITISRDNAKSTLYLQMTSLRPEDTATYYCARHRGYSTNFYHDVLDAWGQGALVTVSS
VL: DVQMTQSPSYLATSPGESVSISCKASKNIDTYLAWYQEKPGKTNKLLIYSGSTLQSGTPSRFSGSGSGTDFTLTIRNLESEDFAVYYCQQHNEYPLTFGSGTKLEIKR
notes: rat monoclonal raised against murine MCAM-Fc; also called anti-MCAM clone 17
- binding result [11]: no binding (tested: 5 ug/ml)
- binding result [12]: binds
- binding result [13]: binds
